# In publication PMC3174058 (Biochemical Journal, 2011):
# Values joined by “and” are separate entries in the source; they are usually repeats but may differ in a detail not shown here. Equal entries are not always repeated.
# What was measured:
# [1] = target: Recombinant mouse SOUL; conditions: printed as range in words; ref [19] Sato et al., 2004; cited from earlier work
# [2] = UV–visible spectrum of haemin alone; format: physicochemical; conditions: 10 μM haemin; 20 mM Tris/HCl (pH 7.5), 0.15 M NaCl; 30 min, 25 °C
# [3] = tested on: 15N-labelled SOUL; assay: 15N-1H HSQC NMR titration of 15N-labelled SOUL with haemin; format: binding, human; conditions: 0.5, 1, 2, 3 and 4 equivalents haemin, Tris/HCl buffer, 25 °C; more than 1 day of observation
# [4] = target: human Bcl-xL lacking only the C-terminal transmembrane domain (after amino acid 209) (human, UniProt Q07817-1 1-209); assay: NMR titration
# human Bcl-xL lacking only the C-terminal transmembrane domain (after amino acid 209), sequence (Q07817 1-209): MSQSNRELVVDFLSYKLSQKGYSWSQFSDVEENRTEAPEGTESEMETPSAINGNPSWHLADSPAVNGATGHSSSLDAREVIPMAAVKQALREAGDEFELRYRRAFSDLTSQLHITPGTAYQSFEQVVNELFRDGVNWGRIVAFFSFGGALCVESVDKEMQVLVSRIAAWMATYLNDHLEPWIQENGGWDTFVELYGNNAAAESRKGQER
# [5] = tested on: caspase 8; assay: caspase 8 cleavage experiment; format: biochemical; conditions: human BID as control; results not shown
# [6] = tested on: mitochondrial permeability transition / cell death; conditions: cited from earlier work
molecule,measurement,setting,value
C=CC1=C(C)c2cc3[n-]c(cc4[n-]c(cc5nc(cc1n2)C(C)=C5C=C)c(C)c4CCC(=O)O)c(CCC(=O)O)c3C.[Fe+2] [haem],dissociation constant for haem binding,[1],nanomolar range
C=CC1=C(C)c2cc3[n-]c(cc4nc(cc5[n-]c(cc1n2)c(C)c5C=C)C(C)=C4CCC(=O)O)c(CCC(=O)O)c3C.[Cl-].[Fe+3] [haemin],"haemin absorption peak position, haemin alone",[2],390 nM
same,change of SOUL HSQC spectrum with haemin,[3],the spectrum remained unaltered
SAQKNQEQLLTLASILREDGKVFDEK [SOUL BH3 peptide (26-amino-acid-long peptide spanning residues 147–172 of human SOUL)],Kd,[4],47.8 µM and 41.3 µM
"SOUL: human SOUL protein, recombinant, expressed in E. coli, histidine tag removed by thrombin (protein, left off: His tag, C-terminal, cleaved) MAEPLQPDPGAAEDAAAQAVETPGWKAPEDAGPQPGSYEIRHYGPAKWVSTSVESMDWDSAIQTGFTKLNSYIQGKNEKEMKIKMTAPVTSYVEPGSGPFSESTITISLYIPSEQQFDPPRPLESDVFIEDRAEMTVFVRSFDGFSSAQKNQEQLLTLASILREDGKVFDEKVYYTAGYNSPVKLLNRNNEVWLIQKNEPTKENE",cleavage by caspase 8,[5],is not a substrate of this enzyme
same,effect of deletion of putative BH3 domain on apoptotic effects,"[6]; human SOUL, BH3 domain deleted, ref [21] Szigeti et al., 2010",abolished the apoptotic effects of SOUL
same,induction of MPT,"[6]; leads to mitochondrial swelling and cell death, ref [20] Szigeti et al., 2006",can induce the MPT
